According to patent US20250188188A1:

Experiments:
[1] = target: active human C1s purified from human serum (CompTech, Tyler, TX, catalog number A104) (human) (UniProt P09871); test: cell-based or functional assay
[2] = target: active human C1s purified from human serum (CompTech, Tyler, TX, catalog number A104) (human) (UniProt P09871); test: SPR, antibody captured via anti-human Fc, C1s in solution

active human C1s purified from human serum (CompTech, Tyler, TX, catalog number A104) (human), sequence (P09871 16-437, chain 1 of 2): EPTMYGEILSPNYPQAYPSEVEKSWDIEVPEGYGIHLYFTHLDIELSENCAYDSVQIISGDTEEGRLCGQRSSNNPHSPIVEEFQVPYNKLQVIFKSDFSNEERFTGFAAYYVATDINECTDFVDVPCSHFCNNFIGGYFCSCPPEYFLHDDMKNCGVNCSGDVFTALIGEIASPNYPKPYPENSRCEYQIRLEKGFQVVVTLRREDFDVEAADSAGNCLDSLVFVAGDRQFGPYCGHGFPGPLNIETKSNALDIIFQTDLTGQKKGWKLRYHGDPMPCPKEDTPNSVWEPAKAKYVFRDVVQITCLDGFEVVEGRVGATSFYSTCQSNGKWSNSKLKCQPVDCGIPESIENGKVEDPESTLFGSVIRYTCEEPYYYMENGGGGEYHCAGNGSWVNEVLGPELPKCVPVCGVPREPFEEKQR
active human C1s purified from human serum (CompTech, Tyler, TX, catalog number A104) (human), sequence (P09871 438-688, chain 2 of 2): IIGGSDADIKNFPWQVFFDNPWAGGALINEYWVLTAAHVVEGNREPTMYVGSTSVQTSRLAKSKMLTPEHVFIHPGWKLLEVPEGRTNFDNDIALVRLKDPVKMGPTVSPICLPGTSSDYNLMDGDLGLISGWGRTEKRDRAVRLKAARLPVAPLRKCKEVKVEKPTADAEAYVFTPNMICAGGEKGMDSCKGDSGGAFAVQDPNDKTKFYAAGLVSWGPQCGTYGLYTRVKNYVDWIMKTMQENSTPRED

Kd [2]: 3.77 nM
koff [2]: 0.00134 s⁻¹
kon [2]: 357000 M⁻¹ s⁻¹
B1: recombinant TNT020 (antibody, from another filing, V domains shown)
VH: QVQLVQSGAEVKKPGASVKLSCTASGFNIKDDYIHWVKQAPGQGLEWIGRIDPADGHTKYAPKFQVKVTITADTSTSTAYLELSSLRSEDTAVYYCARYGYGREVFDYWGQGTTVTVSS
VL: DIVLTQSPDSLAVSLGERATISCKASQSVDYDGDSYMNWYQQKPGQPPKILIYDASNLESGIPARFSGSGSGTDFTLTISSLEPEDFAIYYCQQSNEDPWTFGGGTKVEIKR
IC50, inhibition of C3b deposition on sensitized hRBCs in 7.5% human serum (flow cytometry), Donor A [1]: 52.9 nM
IC50, inhibition of C3b deposition on sensitized hRBCs in 7.5% human serum (flow cytometry), Donor B (1) [1]: 238 nM
IC50, inhibition of C3b deposition on sensitized hRBCs in 7.5% human serum (flow cytometry), Donor B (2) [1]: 688 nM
IC50, inhibition of sensitized hRBC lysis in 25% human serum, Donor 1 [1]: 20.9 nM
IC50, inhibition of sensitized hRBC lysis in 25% human serum, Donor 2 [1]: 30.7 nM
IC50, inhibition of sensitized hRBC lysis in 25% human serum, Donor 3 [1]: 14.6 nM
